Drawing on patent publication US20140227324A1, this text covers NIH/3T3 migration toward IL12(p40)2, IL12Rβ1ΔTM co-transfected alongside IL12Rβ1 and STAT4 activity (GAS-promoter luciferase reporter), IL12Rβ1ΔTM co-transfected alongside IL12Rβ1 and IL12Rβ2 for two substances.

For the assay, the target named is mouse IL12Rβ1 (IL12 Receptor Beta 1, transmembrane-containing form) (mouse) (UniProt Q60837). Nature of the assay: cell-based or functional assay.
Chain of UniProt Q60837 (Q60837 20-738): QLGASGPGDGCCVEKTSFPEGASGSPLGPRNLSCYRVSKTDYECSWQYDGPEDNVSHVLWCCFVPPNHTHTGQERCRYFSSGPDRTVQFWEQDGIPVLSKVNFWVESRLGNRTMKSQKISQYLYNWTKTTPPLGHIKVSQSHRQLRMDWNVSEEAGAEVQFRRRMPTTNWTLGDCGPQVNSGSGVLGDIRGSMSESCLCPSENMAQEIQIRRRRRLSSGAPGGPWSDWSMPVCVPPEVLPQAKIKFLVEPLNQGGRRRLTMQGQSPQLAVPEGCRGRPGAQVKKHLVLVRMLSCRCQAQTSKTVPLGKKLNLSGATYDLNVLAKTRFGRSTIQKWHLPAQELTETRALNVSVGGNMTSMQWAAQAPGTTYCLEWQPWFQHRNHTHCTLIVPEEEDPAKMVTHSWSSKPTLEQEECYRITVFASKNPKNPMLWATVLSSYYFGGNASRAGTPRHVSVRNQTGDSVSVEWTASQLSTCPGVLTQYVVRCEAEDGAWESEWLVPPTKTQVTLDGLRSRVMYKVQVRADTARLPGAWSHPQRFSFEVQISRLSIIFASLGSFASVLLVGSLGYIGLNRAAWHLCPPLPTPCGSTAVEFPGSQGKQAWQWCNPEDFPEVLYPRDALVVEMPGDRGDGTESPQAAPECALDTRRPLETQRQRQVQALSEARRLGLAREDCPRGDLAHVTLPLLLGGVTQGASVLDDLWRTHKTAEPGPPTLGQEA

The substance IL12(p40)2 (ligand) came in with an NIH/3T3 migration toward IL12(p40)2, IL12Rβ1ΔTM co-transfected alongside IL12Rβ1 of 50 % increase.
With IL12 (ligand), the STAT4 activity (GAS-promoter luciferase reporter), IL12Rβ1ΔTM co-transfected alongside IL12Rβ1 and IL12Rβ2 came out at 30 % increase.
